Source: patent publication US20070059309A1

Columns and labels:
[1] = target: lymphoblastoid interferon (NIH reference Ga23-901-532)
[2] = target: leukocyte interferon (Sigma Product No. I-2396); test: cell-based or functional assay

EC50 (read off the bars); loss of protection by 3 IU/ml lymphoblastoid interferon, cytopathic effect [1]: 3 ng/mL
EC50 (read off the bars); loss of protection by 10 IU/ml lymphoblastoid interferon, cytopathic effect [1]: 5 ng/mL
neutralization of anti-viral activity [2]: > 95%
B1: murine anti-human IFN-α monoclonal antibody 9F3 (antibody, IgG2, V domains shown)
VL: DIVLTQSPASLAVSLGQRATISCRASQSVSTSSYSYMHWYQQKPGQPPKVLISYASNLESGVPARFSGSGSGTDFTLNIHPVEEGDTATYFCQHSWGIPRTFGAGTKLELRRAV
VH: EVQLQQSGPELVKPGASVKISCKTSGYTFTEYIIHWVKQGHGRSLEWIGSINPDYDITNYNQRFKGKATLTLDKSSRTAYLELRSLTSEDSAVYYCASWISDFFDYWGQGTTLMVSAAS
